Experiment: Single-channel current recording in planar phospholipid bilayer membranes
Details: voltage clamp, peptide added to one side, pH 7.4
Method: Planar phospholipid bilayer membranes were formed as described by Mirzabekov et al. (1999) Meth. Enzymol. 294: 61-74. A bubble of lipid dissolved in heptane was placed at the end of a small (100-300 μm) Teflon tube. Silver/silver chloride electrodes connected the aqueous components bounding the membrane to a voltage clamp. Ion-channel currents through the membrane were recorded by an Axopatch amplifier (Axon Instruments, Sunnyvale, Calif.). Data were filtered at 1 kHz and stored on VHS tape. Membrane capacitance and resistance were monitored continuously to ensure the formation and stability of reproducible membranes and the proper membrane thickness. […] Peptide samples were introduced by perfusing the aqueous solution bounding one side of the membrane.

B1: SAA: human apo-serum amyloid A purchased from PeproTech (protein, UniProt P0DJI8 19-122, looked up)
Serum amyloid A-1 protein: RSFFSFLGEAFDGARDMWRAYSDMREANYIGSDKYFHARGNYDAAKRGPGGAWAAEVITDARENIQRFFGHGAEDSLADQAANEWGRSGKDPNHFRPAGLPEKY
  induction of single-channel ion currents / conductances: Current jumps corresponding to the opening or closing of individual ion channels can be observed
